Test results: patent publication US20210283258A1

Biological target: HER2 receptor (human) (UniProt P04626)
Test: cell-based or functional assay
Details: scale: % greater uptake compared to the non-targeted nanoparticle

cellular uptake in BT-474 cell line (CPT fluorescence of cell lysate, 30 min at 37° C.): 70
Substance: Herceptin®-PEG-nitroPBA targeted MAP-CPT nanoparticle (antibody)
